From patent US20030103975A1 (published 2003)

Molecular target: human fibronectin (BD Biosciences) (human, UniProt P02751-8 32-2296, limits assumed)
Test: solid-phase saturation binding ELISA: coated fibronectin at varying concentrations, soluble integrin at 5 ng/µl, detected with LM609
Experimental: FIGS. 3A-D. Wells of a 96-well plate were coated with varying concentrations of G⁹¹⁹⁻¹²⁰⁷, G⁹¹⁹⁻¹⁰¹⁸ and G¹⁰¹⁶⁻¹²⁰⁷ (A) or fibronectin (B). αvβ3 integrin (5 ng/μl) was then added to, allowed to bind for 1 h at 37° C., and binding evaluated by ELISA using LM609 followed by a secondary antibody conjugated to alkaline phosphatase. […] is a competition binding curve. Soluble αvβ3 (5 ng/μl) was added to wells coated with G⁹¹⁹⁻¹²⁰⁷ in the presence of increasing concentrations of fibronectin at 37° C. […] In all studies, absorbance was measured at 405 nm. Each of the graphs is representative of at least three separate experiments.
ELISA Assays. Wells of 96-well non-tissue culture treated plates were coated with protein at varying concentrations for 18 h at 4° C. Each well was rinsed three times and blocked with 1% BSA in PBS for 1 h at 37° C. Soluble integrin heterodimers were diluted in binding buffer (25 mM Tris buffer, […], 1 mM MgCl2, 0.5 mM MnCl2, 0.05% BSA, pH 7.5) and added to each well for a final concentration of 5 ng/μl. After incubating for 90 min at 37° C. wells were rinsed three times in binding buffer and appropriate mouse monoclonal anti-integrin antibody was added for 1 h at 37° C. […] Absorbance at 405 nm was measured with a Vmax plate reader (Molecular Devices, Menlo Park, Calif.). Nonspecific binding was determined by the addition of 10 mM EDTA to binding buffer. […]

human fibronectin (BD Biosciences), sequence (P02751 other isoform, or with tags, fused parts or gaps limits assumed): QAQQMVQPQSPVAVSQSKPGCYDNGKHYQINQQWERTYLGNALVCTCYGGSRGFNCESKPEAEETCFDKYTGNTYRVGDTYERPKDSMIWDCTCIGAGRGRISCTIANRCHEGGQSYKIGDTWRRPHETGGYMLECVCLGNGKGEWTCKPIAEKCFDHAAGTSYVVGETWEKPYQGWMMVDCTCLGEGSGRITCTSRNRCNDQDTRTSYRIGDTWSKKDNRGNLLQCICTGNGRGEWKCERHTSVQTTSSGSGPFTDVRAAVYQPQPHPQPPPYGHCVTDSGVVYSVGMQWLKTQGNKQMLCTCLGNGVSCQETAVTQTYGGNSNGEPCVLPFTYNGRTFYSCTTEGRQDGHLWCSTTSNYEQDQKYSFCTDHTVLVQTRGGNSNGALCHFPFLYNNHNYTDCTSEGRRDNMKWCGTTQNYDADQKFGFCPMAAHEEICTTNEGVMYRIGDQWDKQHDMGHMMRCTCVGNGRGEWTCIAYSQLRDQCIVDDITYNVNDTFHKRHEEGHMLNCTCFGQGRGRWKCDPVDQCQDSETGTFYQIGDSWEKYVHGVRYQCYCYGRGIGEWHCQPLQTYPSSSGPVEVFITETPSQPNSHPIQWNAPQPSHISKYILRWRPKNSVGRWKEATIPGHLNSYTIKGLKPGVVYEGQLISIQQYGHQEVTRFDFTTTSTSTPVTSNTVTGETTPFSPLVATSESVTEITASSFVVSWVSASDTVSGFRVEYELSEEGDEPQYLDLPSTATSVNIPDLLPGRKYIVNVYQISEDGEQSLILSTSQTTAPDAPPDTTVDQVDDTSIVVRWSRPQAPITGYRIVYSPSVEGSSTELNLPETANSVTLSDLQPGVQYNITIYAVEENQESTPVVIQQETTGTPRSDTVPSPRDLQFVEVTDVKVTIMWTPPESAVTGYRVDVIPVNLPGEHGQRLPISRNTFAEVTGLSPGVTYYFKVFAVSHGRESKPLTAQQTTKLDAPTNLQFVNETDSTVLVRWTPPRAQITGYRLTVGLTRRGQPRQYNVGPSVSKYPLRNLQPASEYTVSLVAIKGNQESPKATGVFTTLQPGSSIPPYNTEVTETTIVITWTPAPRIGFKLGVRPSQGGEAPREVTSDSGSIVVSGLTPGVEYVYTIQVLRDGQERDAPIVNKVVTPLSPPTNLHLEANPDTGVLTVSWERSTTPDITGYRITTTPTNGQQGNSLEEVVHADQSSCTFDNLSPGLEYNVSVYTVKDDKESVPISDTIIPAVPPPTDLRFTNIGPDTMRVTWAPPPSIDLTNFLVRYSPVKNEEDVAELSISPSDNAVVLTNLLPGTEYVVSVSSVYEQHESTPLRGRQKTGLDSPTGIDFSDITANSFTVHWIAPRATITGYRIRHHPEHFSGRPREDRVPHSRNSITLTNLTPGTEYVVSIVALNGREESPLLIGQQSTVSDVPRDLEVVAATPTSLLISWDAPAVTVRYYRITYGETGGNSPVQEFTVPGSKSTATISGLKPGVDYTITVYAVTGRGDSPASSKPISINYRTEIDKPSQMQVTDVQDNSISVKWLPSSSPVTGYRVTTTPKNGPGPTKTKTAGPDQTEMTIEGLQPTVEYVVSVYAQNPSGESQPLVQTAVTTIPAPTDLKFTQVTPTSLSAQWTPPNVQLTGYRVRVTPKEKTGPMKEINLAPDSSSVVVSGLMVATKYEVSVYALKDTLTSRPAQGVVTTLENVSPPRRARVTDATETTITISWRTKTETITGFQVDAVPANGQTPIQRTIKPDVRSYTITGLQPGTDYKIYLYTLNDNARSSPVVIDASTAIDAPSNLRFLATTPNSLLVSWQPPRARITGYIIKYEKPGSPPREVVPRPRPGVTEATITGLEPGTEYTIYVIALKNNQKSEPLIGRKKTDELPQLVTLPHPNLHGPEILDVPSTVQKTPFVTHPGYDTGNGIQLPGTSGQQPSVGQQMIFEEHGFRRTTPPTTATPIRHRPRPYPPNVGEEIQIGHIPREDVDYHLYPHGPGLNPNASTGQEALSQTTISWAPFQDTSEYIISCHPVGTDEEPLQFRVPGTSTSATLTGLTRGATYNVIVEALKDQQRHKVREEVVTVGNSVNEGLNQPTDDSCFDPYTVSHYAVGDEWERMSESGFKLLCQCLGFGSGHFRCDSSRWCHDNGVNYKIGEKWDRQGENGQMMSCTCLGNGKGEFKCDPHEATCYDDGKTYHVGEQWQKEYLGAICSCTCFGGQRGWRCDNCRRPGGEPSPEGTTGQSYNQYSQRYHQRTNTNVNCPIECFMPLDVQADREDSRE

Kd: 15 nM
B1: soluble αvβ3 integrin heterodimer (Chemicon International) (receptor)
chain 1: FNLDVDSPAEYSGPEGSYFGFAVDFFVPSASSRMFLLVGAPKANTTQPGIVEGGQVLKCDWSSTRRCQPIEFDATGNRDYAKDDPLEFKSHQWFGASVRSKQDKILACAPLYHWRTEMKQEREPVGTCFLQDGTKTVEYAPCRSQDIDADGQGFCQGGFSIDFTKADRVLLGGPGSFYWQGQLISDQVAEIVSKYDPNVYSIKYNNQLATRTAQAIFDDSYLGYSVAVGDFNGDGIDDFVSGVPRAARTLGMVYIYDGKNMSSLYNFTGEQMAAYFGFSVAATDINGDDYADVFIGAPLFMDRGSDGKLQEVGQVSVSLQRASGDFQTTKLNGFEVFARFGSAIAPLGDLDQDGFNDIAIAAPYGGEDKKGIVYIFNGRSTGLNAVPSQILEGQWAARSMPPSFGYSMKGATDIDKNGYPDLIVGAFGVDRAILYRARPVITVNAGLEVYPSILNQDNKTCSLPGTALKVSCFNVRFCLKADGKGVLPRKLNFQVELLLDKLKQKGAIRRALFLYSRSPSHSKNMTISRGGLMQCEELIAYLRDESEFRDKLTPITIFMEYRLDYRTAADTTGLQPILNQFTPANISRQAHILLDCGEDNVCKPKLEVSVDSDQKKIYIGDDNPLTLIVKAQNQGEGAYEAELIVSIPLQADFIGVVRNNEALARLSCAFKTENQTRQVVCDLGNPMKAGTQLLAGLRFSVHQQSEMDTSVKFDLQIQSSNLFDKVSPVVSHKVDLAVLAAVEIRGVSSPDHVFLPIPNWEHKENPETEEDVGPVVQHIYELRNNGPSSFSKAMLHLQWPYKYNNNTLLYILHYDIDGPMNCTSDMEINPLRIKISSLQTTEKNDTVAGQGERDHLITKRDLALSEGDIHTLGCGVAQCLKIVCQVGRLDRGKSAILYVKSLLWTETFMNKENQNHSYSLKSSASFNVIEFPYKNLPIEDITNSTLVTTNVTWGIQPAPMPV
chain 2: GPNICTTRGVSSCQQCLAVSPMCAWCSDEALPLGSPRCDLKENLLKDNCAPESIEFPVSEARVLEDRPLSDKGSGDSSQVTQVSPQRIALRLRPDDSKNFSIQVRQVEDYPVDIYYLMDLSYSMKDDLWSIQNLGTKLATQMRKLTSNLRIGFGAFVDKPVSPYMYISPPEALENPCYDMKTTCLPMFGYKHVLTLTDQVTRFNEEVKKQSVSRNRDAPEGGFDAIMQATVCDEKIGWRNDASHLLVFTTDAKTHIALDGRLAGIVQPNDGQCHVGSDNHYSASTTMDYPSLGLMTEKLSQKNINLIFAVTENVVNLYQNYSELIPGTTVGVLSMDSSNVLQLIVDAYGKIRSKVELEVRDLPEELSLSFNATCLNNEVIPGLKSCMGLKIGDTVSFSIEAKVRGCPQEKEKSFTIKPVGFKDSLIVQVTFDCDCACQAQAEPNSHRCNNGNGTFECGVCRCGPGWLGSQCECSEEDYRPSQQDECSPREGQPVCSQRGECLCGQCVCHSSDFGKITGKYCECDDFSCVRYKGEMCSGHGQCSCGDCLCDSDWTGYYCNCTTRTDTCMSSNGLLCSGRGKCECGSCVCIQPGSYGDTCEKCPTCPDACTFKKECVECKKFDRGALHDENTCNRYCRDEIESVKELKDTGKDAVNCTYKNEDDCVVRFQYYEDSSGKSILYVVEEPECPKGPD
notes: Bought
